This note sets out measurements from patent US20030069395A1 (DYAX, published 2003).

The target of one assay is pig serum albumin (Pig, UniProt P08835 25-607). Kind of assay: fluorescence anisotropy; 3 mM phosphate, pH 6.2, 0 M NaCl. (Polarisation of emitted light reports the rotation of a fluorescent probe.)
The target of the next assay is rabbit serum albumin (Rabbit, UniProt P49065 25-608). Described as above.
In assay [1] the target is T1, chicken ovalbumin (Chicken, UniProt P01012 2-386).
T1 construct: Negative control; also called Chicken (egg)
T1 sequence (looked up): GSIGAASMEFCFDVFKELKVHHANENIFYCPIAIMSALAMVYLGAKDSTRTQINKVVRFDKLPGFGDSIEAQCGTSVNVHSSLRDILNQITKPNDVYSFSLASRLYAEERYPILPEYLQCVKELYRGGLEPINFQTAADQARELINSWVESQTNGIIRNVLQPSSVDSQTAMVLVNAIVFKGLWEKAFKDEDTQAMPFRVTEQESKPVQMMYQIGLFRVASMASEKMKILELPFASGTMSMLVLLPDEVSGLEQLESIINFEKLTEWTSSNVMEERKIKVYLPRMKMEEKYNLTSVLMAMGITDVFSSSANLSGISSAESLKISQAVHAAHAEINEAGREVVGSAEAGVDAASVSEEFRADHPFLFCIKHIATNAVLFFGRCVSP
Kind of assay: fluorescence anisotropy; 3 mM phosphate, pH 6.2, 0 M NaCl; negative control.

Assay [2] has as its target T1, chicken ovalbumin. The assay can be described thus: fluorescence anisotropy; PBS, pH 7.4, 0.14 M NaCl; negative control.
In assay [3] the target is T2, human serum albumin (HSA) (human, UniProt P02768 25-609).
T2 construct: also called caprylate-biotinylated-HSA
The assay can be described thus: fluoresceinated peptide; 3 mM phosphate buffer, pH 6.2, no salt. How it is done: (§1) Affinity determinations were made by first labeling polypeptides on the C-terminal end with NHS-fluorescein. Fluorescence anisotropy measurements were performed in 384-well microplates in a volume of 10 μl in binding buffer using a Tecan Polarion fluorescence polarization plate reader. The concentration of fluorescein labeled peptide was held constant (20 nM), and the concentration of HSA was varied. For pH 6.2, 7.1, and 7.4 binding conditions, a 3 mM phosphate, 0.01% Tween-20 buffer was used. For pH 9.1 binding conditions, a 3 mM sodium bicarbonate buffer, 0.01% Tween-20 nonionic detergent buffer was used. Once NaCl was added to any of these buffers, their pH was adjusted again to achieve the original pH. The binding mixtures were equilibrated for 10 minutes in the microplate at 30° C. prior to performing the measurement. The observed change in anisotropy was fit to the equation below via nonlinear regression to obtain the apparent KD. This equation assumes that the peptide and HSA form a reversible complex with 1:1 stoichiometry.
(§2) Each of the polypeptides was fluoresceinated and tested for binding against an immobilized HSA target as described above.

Assay [4] has as its target T2, human serum albumin (HSA). Kind of assay: fluoresceinated peptide; PBS. How it is done:
as §1, §2

Assay [5] has as its target T2, human serum albumin (HSA). Kind of assay: fluorescence anisotropy; pH 6.2, 0.14 M NaCl, no caprylate. How it is done: as §1
Assay [6] deals with T2, human serum albumin (HSA). The assay can be described thus: fluorescence anisotropy; buffer not named in Table 2.
In assay [7] the target is T2, human serum albumin (HSA). Kind of assay: fluorescence anisotropy, truncated peptides. On the procedure: as §1
The target in assay [8] is T2, human serum albumin (HSA). The assay can be described thus: fluorescence anisotropy; pH 7.4, 0.14 M NaCl, no caprylate. On the procedure: as §1
Assay [9] concerns the target T2, human serum albumin (HSA). Kind of assay: fluorescence anisotropy; pH 7.4, 0.14 M NaCl, 0.1% caprylate. How it is done: as §1
Once all the positive phage isolates were sequenced, peptides corresponding to the display peptide were synthesized. A small amount of constant phage sequence surrounding each varied amino acid sequence region was retained and either a -GGGK-NH₂ (SEQ ID NO: 24) amino acid sequence or -X-K-NH₂ C-terminal tail was added to each peptide, where X is 6-aminohexanoic acid and K-NH₂ is an amidated terminal lysine residue. The constant phage sequence was retained because these residues can often play a role in target binding. To determine its affinity for HSA , each peptide was labeled with fluorescein on the C-terminal lysine side chain.

Assay [10] concerns the target T2, human serum albumin (HSA). The assay can be described thus: fluorescence anisotropy; pH 9.1, 0.14 M NaCl (as the head marks it), no caprylate. On the procedure:
as §1

Assay [11] addresses T2, human serum albumin (HSA). Kind of assay: phage ELISA on caprylate-biotinylated HSA held on streptavidin wells; TN12/1 solution-capture selection.

Bridges are numbered along the chain shown (N, C = ends). Where no end group is shown, it is not given here. [ ]: non-standard residue; d: D form. fluorescein = fluorescein label; Ahx = NCCCCCC(=O)O

Chain of rabbit serum albumin (P49065 25-608 limits assumed): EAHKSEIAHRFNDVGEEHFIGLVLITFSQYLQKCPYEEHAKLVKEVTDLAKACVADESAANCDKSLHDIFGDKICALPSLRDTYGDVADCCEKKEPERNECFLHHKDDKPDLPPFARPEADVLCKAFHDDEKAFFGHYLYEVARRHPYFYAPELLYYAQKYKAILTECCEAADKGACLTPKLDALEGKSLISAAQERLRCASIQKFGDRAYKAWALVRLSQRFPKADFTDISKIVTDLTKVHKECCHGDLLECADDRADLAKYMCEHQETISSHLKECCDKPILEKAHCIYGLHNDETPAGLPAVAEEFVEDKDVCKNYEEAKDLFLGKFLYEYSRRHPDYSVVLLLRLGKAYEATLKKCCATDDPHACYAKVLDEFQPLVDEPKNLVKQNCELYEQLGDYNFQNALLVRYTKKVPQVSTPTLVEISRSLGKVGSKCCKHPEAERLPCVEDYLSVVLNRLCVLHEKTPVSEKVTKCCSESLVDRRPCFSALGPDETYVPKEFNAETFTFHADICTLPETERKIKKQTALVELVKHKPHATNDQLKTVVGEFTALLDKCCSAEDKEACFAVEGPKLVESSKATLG
Chain of pig serum albumin (P08835 25-607 limits assumed): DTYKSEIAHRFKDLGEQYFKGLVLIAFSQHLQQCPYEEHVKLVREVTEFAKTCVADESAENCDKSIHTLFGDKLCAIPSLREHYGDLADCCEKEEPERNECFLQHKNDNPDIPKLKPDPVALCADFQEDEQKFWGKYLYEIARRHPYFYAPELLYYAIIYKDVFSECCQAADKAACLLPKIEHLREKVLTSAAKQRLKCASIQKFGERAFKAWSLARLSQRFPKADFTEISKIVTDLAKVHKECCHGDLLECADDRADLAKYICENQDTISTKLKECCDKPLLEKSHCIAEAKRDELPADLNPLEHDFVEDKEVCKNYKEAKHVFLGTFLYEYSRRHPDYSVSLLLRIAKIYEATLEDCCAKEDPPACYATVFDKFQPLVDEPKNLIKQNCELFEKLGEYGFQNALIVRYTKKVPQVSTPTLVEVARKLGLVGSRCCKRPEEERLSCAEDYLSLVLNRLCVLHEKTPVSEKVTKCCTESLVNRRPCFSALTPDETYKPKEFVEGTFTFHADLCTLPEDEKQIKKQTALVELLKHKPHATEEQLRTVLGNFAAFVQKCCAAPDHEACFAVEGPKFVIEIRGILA

B1: DX-236, Ac-AEGTGDFWFCDRIAWYPQHLCEFLDPEGGGK-NH2 (peptide)
peptide: Ac-AEGTGDFWFCDRIAWYPQHLCEFLDPEGGGK-NH2
modifications: not fully specified; cysteine pairing not given here
In the case of B1, the Kd with pig serum albumin was 0.5 µM; with rabbit serum albumin, 0.5 µM; in the assay with chicken ovalbumin [1], over 200 µM; with chicken ovalbumin [2] it was over 200 µM.

B2: alanine mutant of DX-236, Ac-AEGTGDFWFCDRIAWYPQHACEFLDPEGGGK-NH2 (peptide)
peptide: Ac-AEGTGDFWFCDRIAWYPQHACEFLDPEGGGK-NH2
modifications: cysteine pairing not given here; also: fluorescein label, position not given here
In the case of B2, the Kd in assay [3] was 2 µM.

B3: alanine mutant of DX-236, Ac-AEGTGDFAFCDRIAWYPQHLCEFLDPEGGGK-NH2 (peptide)
peptide: Ac-AEGTGDFAFCDRIAWYPQHLCEFLDPEGGGK-NH2
modifications: cysteine pairing not given here; also: fluoresceinated, site not given here
In the case of B3, the Kd in assay [3] amounted to 2.3 µM.

B4: alanine mutant of DX-236, Ac-AEGTGDFWFCDRIAWAPQHLCEFLDPEGGGK-NH2 (peptide)
peptide: Ac-AEGTGDFWFCDRIAWAPQHLCEFLDPEGGGK-NH2
modifications: cysteine pairing not given here; also: fluoresceinated, site not given here
Regarding B4, in [3], the Kd came out at 1.4 µM.

B5: alanine mutant of DX-236, Ac-AEGTGDFWFCDRIAAYPQHLCEFLDPEGGGK-NH2 (peptide)
peptide: Ac-AEGTGDFWFCDRIAAYPQHLCEFLDPEGGGK-NH2
modifications: cysteine pairing not given here; also: fluoresceinated, site not given here
Turning to B5, in [3], the Kd is 1.4 µM.

B6: alanine mutant of DX-236, Ac-AEGTGDFWFCDRIAWYAQHLCEFLDPEGGGK-NH2 (peptide)
peptide: Ac-AEGTGDFWFCDRIAWYAQHLCEFLDPEGGGK-NH2
modifications: cysteine pairing not given here; also: fluoresceinated, site not given here
With B6, the Kd in [3] stood at 1.3 µM.

B7: alanine mutant of DX-236, Ac-AEGTGDFWFCARIAWYPQHLCEFLDPEGGGK-NH2 (peptide)
peptide: Ac-AEGTGDFWFCARIAWYPQHLCEFLDPEGGGK-NH2
modifications: cysteine pairing not given here; also: fluoresceinated, site not given here
Take B7: the affinity in assay [4], expressed as Kd, was 5 µM.

B8: alanine mutant of DX-236, Ac-AEGTGDFWFCDRIAWYPAHLCEFLDPEGGGK-NH2 (peptide)
peptide: Ac-AEGTGDFWFCDRIAWYPAHLCEFLDPEGGGK-NH2
modifications: cysteine pairing not given here; also: fluoresceinated, site not given here
Take B8: the Kd in assay [3] amounted to 2.2 µM.

B9: alanine mutant of DX-236, Ac-AEGTGDAWFCDRIAWYPQHLCEFLDPEGGGK-NH2 (peptide)
peptide: Ac-AEGTGDAWFCDRIAWYPQHLCEFLDPEGGGK-NH2
modifications: cysteine pairing not given here; also: fluoresceinated, site not given here
Turning to B9, the Kd in assay [3] worked out at 5.1 µM.

B10: alanine mutant of DX-236, Ac-AEGTGAFWFCDRIAWYPQHLCEFLDPEGGGK-NH2 (peptide)
peptide: Ac-AEGTGAFWFCDRIAWYPQHLCEFLDPEGGGK-NH2
modifications: cysteine pairing not given here; also: fluoresceinated, site not given here
As for B10, the Kd in [3] worked out at 5.1 µM.

B11: alanine mutant of DX-236, Ac-AEGTGDFWFCDAIAWYPQHLCEFLDPEGGGK-NH2 (peptide)
peptide: Ac-AEGTGDFWFCDAIAWYPQHLCEFLDPEGGGK-NH2
modifications: cysteine pairing not given here; also: fluoresceinated, site not given here
With B11, the Kd in assay [3] came to 1.5 µM.

B12: DX-295, Ac-AEGTGSFKICDQWFCLMPAPE-X-K-NH2 (peptide)
peptide: Ac-AEGTGSFKICDQWFCLMPAPE[Ahx]K(fluorescein)-NH2
modifications: disulfide 10-15
In the case of B12, the Kd in assay [5] is over 100 µM.

B13: truncated peptide of DX-236, Ac-FWFCDRIAWYPQHLCEFLDPEGGGK-NH2 (peptide)
peptide: Ac-FWFCDRIAWYPQHLCEFLDPEGGGK(fluorescein)-NH2
modifications: not fully specified (bridges); printed as Ac-FWFCDRIAWYPQHLCEFLDPEGGGK-NH2; cysteine pairing not given here
As for B13, the Kd in assay [6] was found to be 8.9 µM. Also, the “fold increase in KD against DX-236 (SEQ ID NO: 19)” value in assay [7] was about 4 fold.

B14: DX-319, Ac-AEGTGDDWQCVKDWANRRRGCMADDPE-X-K-NH2 (peptide)
peptide: Ac-AEGTGDDWQCVKDWANRRRGCMADDPE[Ahx]K(fluorescein)-NH2
modifications: disulfide 10-21
For the molecule B14, the Kd in assay [5] and in assay [8] was over 200 µM each time.

B15: DX-297, Ac-AEGTGSWKVCDHFFCLSPAPE-X-K-NH2 (peptide)
peptide: Ac-AEGTGSWKVCDHFFCLSPAPE[Ahx]K(fluorescein)-NH2
modifications: disulfide 10-15
Turning to B15, the Kd in assay [9], in assay [5] and in assay [8] was over 200 µM in each case.

B16: DX-298, Ac-AEGTGSNHGCWHFSCIWDAPE-X-K-NH2 (peptide)
peptide: Ac-AEGTGSNHGCWHFSCIWDAPE[Ahx]K(fluorescein)-NH2
modifications: disulfide 10-15
For B16, the Kd in assay [10] and in [5] was over 200 µM throughout.

B17: phage isolate displaying DWDCVTRWANRDQQCWGP (SEQ ID NO: 247) (peptide)
chain: DWDCVTRWANRDQQCWGP
modifications: not fully specified (bridges); cysteine pairing not given here
notes: Whole phage in the ELISA; not shown: protein III of M13 phage; the display peptide stands at its amino terminus
As for B17, the binding result in assay [11] is “binds”.

B18: DX-296, Ac-AEGTGSHVGCNNALCMQYAPE-X-K-NH2 (peptide)
peptide: Ac-AEGTGSHVGCNNALCMQYAPE[Ahx]K(fluorescein)-NH2
modifications: disulfide 10-15
Regarding B18, the Kd in [9] was over 200 µM; in assay [5], over 100 µM.

B19: DX-313, Ac-AEGTGDDWDCVTRWANRDQQCWGPDPE-X-K-NH2 (peptide)
peptide: Ac-AEGTGDDWDCVTRWANRDQQCWGPDPE[Ahx]K(fluorescein)-NH2
modifications: disulfide 10-21
With B19, the Kd is 90 µM in assay [10], 80 µM in assay [5] and over 200 µM in [8].

B20: DX-315, Ac-AEGTGDDWDCVTRWANRDQQCWALDPE-X-K-NH2 (peptide)
peptide: Ac-AEGTGDDWDCVTRWANRDQQCWALDPE[Ahx]K(fluorescein)-NH2
modifications: not fully specified (bridges); printed as Ac-AEGTGDDWDCVTRWANRDQQCWALDPE-X-K-NH2; cysteine pairing not given here
With B20, the Kd in [9] was over 100 µM; in assay [5], over 200 µM.

B21: DX-317, Ac-AEGTGDDWDCVTDWANRHQHCWALDPE-X-K-NH2 (peptide)
peptide: Ac-AEGTGDDWDCVTDWANRHQHCWALDPE[Ahx]K(fluorescein)-NH2
modifications: disulfide 10-21
Molecule B21 yielded a Kd in [5] of over 200 µM.

B22: DX-232, Ac-AEGTGSVAWCTIFLCLDVAPEGGGK-NH2 (peptide)
peptide: Ac-AEGTGSVAWCTIFLCLDVAPEGGGK-NH2
modifications: not fully specified (bridges); printed as Ac-AEGTGSVAWCTIFLCLDVAPEGGGK-NH2; also: C-terminal Lys: fluorescein or coupled to NHS-Sepharose
notes: Putative disulfide between the two Cys
In [5], B22 returned a Kd of 0.5 µM.

B23: truncated peptide of DX-236, Ac-AEGTGDFWFCDRIAWYPQHLCGGGK-NH2 (peptide)
peptide: Ac-AEGTGDFWFCDRIAWYPQHLCGGGK(fluorescein)-NH2
modifications: not fully specified (bridges); printed as Ac-AEGTGDFWFCDRIAWYPQHLCGGGK-NH2; cysteine pairing not given here
As to B23, the Kd in [6] was determined as 8.9 µM. The “fold increase in KD against DX-236 (SEQ ID NO: 19)” value in assay [7] is about 4 fold.

What is called Kd is the concentration at which binding is half-saturated.
